Biological target: interferon-gamma (IFNγ) (human, UniProt P01579 24-161)
Assay: SPR; method inferred; no citation given with the value; SPR (BIAcore T200, biotinylated aptamer on SA chip), 1x PBS (1 mM KH2PO4, 3 mM Na2HPO4) with 205 mM NaCl final, 0.05% NP-40, pH 7.4, 25 °C; IFNγ 1.25-50 nM
Details: protein: recombinant; chain copies: 2

interferon-gamma (IFNγ), sequence (P01579 24-161): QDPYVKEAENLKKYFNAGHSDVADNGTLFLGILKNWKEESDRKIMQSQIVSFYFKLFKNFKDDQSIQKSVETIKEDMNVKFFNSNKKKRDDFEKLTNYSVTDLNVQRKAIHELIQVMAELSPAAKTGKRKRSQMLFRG

Binder: TCCACTCGGGTCATTTAATAATGTAGGTATGGGCTAGGCAGCTAGTGGA (structured_DNA) [aptamer 49A]
- Kd: 7.2 nM

Reference: paper PMC4686876, “Architecture of high-affinity unnatural-base DNA aptamers toward pharmaceutical applications”
